{
  "source": "paper PMC8422858",
  "target": "His-tagged recombinant human apolipoprotein L3 (rHis-APOL3) (human)",
  "assay": "native MS",
  "data": [
    {"substance": "His-tagged recombinant human apolipoprotein L3 (rHis-APOL3) (natural protein)", "values": [
      {"measurement": "stoichiometry N", "result": 2}
    ]}
  ]
}
